Assay results: PMC4297295, “Structural Conservation Despite Huge Sequence Diversity Allows EPCR Binding by the PfEMP1 Family Implicated in Severe Childhood Malaria” (Cell Host & Microbe, 2015)

Experiments:
[1] = target: endothelial protein C receptor (EPCR), extracellular domain, not biotinylated (human) (UniProt Q9UNN8); assay: SEC-MALS; Superdex 75 analytical column, light scattering at 662 nm at 8 angles (Heleos 8), masses by the Zimm equation (ASTRA 6.1); HB3var03 CIDRα1.4, EPCR and their complex
[2] = target: endothelial protein C receptor (EPCR), extracellular domain, not biotinylated (human) (UniProt Q9UNN8); assay: AUC
[3] = target: endothelial protein C receptor (EPCR), extracellular domain, biotinylated on the N-terminal BAP tag (human) (UniProt Q9UNN8); assay: SPR
[4] = target: endothelial protein C receptor with an N-terminal biotin (human) (UniProt Q9UNN8); assay: SPR; Biacore T200; EPCR biotinylated with BirA and coupled to a biotin capture chip to 150 RU; binding partners injected for 240 s, dissociation 300 s; 1:1 interaction model
[5] = target: endothelial protein C receptor (EPCR), extracellular domain, biotinylated on the N-terminal BAP tag (human) (UniProt Q9UNN8); assay: SPR; Biacore T200; biotinylated EPCR captured on a CAP chip (Biotin Capture Kit) to 150 RU, fresh for each cycle; two-fold dilution series of each CIDRα1 injected for 240 s, dissociation 300 s; 20 mM HEPES pH 7.5, 150 mM NaCl, 0.005% Tween-20, 25°C; surface without EPCR subtracted; global fit to a 1:1 interaction model
[6] = target: endothelial protein C receptor, extracellular domain (human) (UniProt Q9UNN8); assay: small-angle X-ray scattering
[7] = target: CIDRα1.4 domain of PfEMP1 HB3var03, E. coli construct with domain boundaries for crystallisation (Plasmodium falciparum); assay: ITC; MicroCal iTC200, 25°C, 20 mM HEPES pH 7.5, 150 mM NaCl; EPCR (36 µM by the legend, 50 µM by the supplemental methods) injected into the cell with HB3var03 CIDRα1.4
[8] = target: T1, endothelial protein C receptor (EPCR), extracellular domain, biotinylated on the N-terminal BAP tag (human, UniProt Q9UNN8 18-210, biotin attached to the N-terminal BAP tag (BirA)); assay: SPR; settings: both partners purified
T1 construct: also called biotinylated recombinant EPCR; ECPR
T1 sequence: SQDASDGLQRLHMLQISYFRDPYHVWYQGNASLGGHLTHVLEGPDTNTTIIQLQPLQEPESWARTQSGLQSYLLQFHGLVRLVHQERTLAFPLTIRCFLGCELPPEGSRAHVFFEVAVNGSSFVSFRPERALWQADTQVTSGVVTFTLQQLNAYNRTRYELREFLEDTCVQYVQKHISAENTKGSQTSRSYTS

[9] = target: T1, endothelial protein C receptor (EPCR), …; assay: SPR; Biacore T200; biotinylated EPCR captured on a CAP chip (Biotin Capture Kit) to 150 RU, fresh for each cycle; two-fold dilution series of each CIDRα1 injected for 240 s, dissociation 300 s; 20 mM HEPES pH 7.5, 150 mM NaCl, 0.005% Tween-20, 25°C; surface without EPCR subtracted; global fit to a 1:1 interaction model; settings: both partners purified

CIDRα1.4 domain of PfEMP1 HB3var03, E. coli construct with domain boundaries for crystallisation (domain or fragment)
stoichiometry N [1]: 1 | stoichiometry N [2]: 1 | Kd [3]: 0.37 nM | koff [3]: 0.000197 s⁻¹ | kon [3]: 532000 M⁻¹ s⁻¹

HB3var03 CIDRα1.4 Q657K (domain or fragment)
fold reduction of the affinity against wild-type HB3var03 CIDRα1 [4]: 200 fold

HB3var03 CIDRα1.4 domain, mutant F656V (domain or fragment)
Kd [5]: 1.5 nM | koff [5]: 0.000223 s⁻¹ | kon [5]: 145000 M⁻¹ s⁻¹

HB3var03 CIDRα1.4 F655Y (domain or fragment)
Kd [4]: < 5 nM

HB3var03 CIDRα1.4 domain, mutant F656Y (domain or fragment)
Kd [5]: 1.9 nM | koff [5]: 0.000379 s⁻¹ | kon [5]: 329000 M⁻¹ s⁻¹

DD2var32 DBLα1.7-CIDRα1.4-DBLβ1 (the three membrane distal domains) (domain or fragment)
stoichiometry N [6]: 1 PfEMP1:EPCR

HB3var03 CIDRα1.4 domain, mutant V658A (domain or fragment)
Kd [5]: 37 nM | koff [5]: 0.000719 s⁻¹ | kon [5]: 19400 M⁻¹ s⁻¹

HB3var03 CIDRα1.4 F655L (domain or fragment)
Kd [4]: < 5 nM

HB3var03 CIDRα1.4 domain, mutant F655L (domain or fragment)
Kd [5]: 4.3 nM | koff [5]: 0.00063 s⁻¹ | kon [5]: 145000 M⁻¹ s⁻¹

HB3var03 CIDRα1.4 domain, mutant F655Y (domain or fragment)
Kd [5]: 0.5 nM | koff [5]: 0.000572 s⁻¹ | kon [5]: 1.1e+06 M⁻¹ s⁻¹

HB3var03 CIDRα1.4 domain, mutant F651A (domain or fragment)
Kd [5]: 2.5 nM | koff [5]: 0.000394 s⁻¹ | kon [5]: 160000 M⁻¹ s⁻¹

HB3var03 CIDRα1.4 F656V (domain or fragment)
Kd [4]: < 5 nM | fold reduction of the affinity against wild-type HB3var03 CIDRα1 [4]: 4 fold

endothelial protein C receptor (EPCR), extracellular domain, not biotinylated (from UniProt Q9UNN8 18-210)
Kd [7]: 1.5 nM | stoichiometry N [7]: 0.94

CIDRα1.4 domain of PfEMP1 IT4var07, E. coli construct with domain boundaries for crystallisation (domain or fragment)
Kd [3]: 1.3 nM | koff [3]: 0.000468 s⁻¹ | kon [3]: 370000 M⁻¹ s⁻¹

HB3var03 CIDRα1.4 F656A (domain or fragment)
fold change in the dissociation rate constant against wild-type HB3var03 CIDRα1 [4]: 100 fold | fold effect on the affinity against wild-type HB3var03 CIDRα1 [4]: 35 fold

HB3var03 CIDRα1.4 F656Y (domain or fragment)
Kd [4]: < 5 nM | fold reduction of the affinity against wild-type HB3var03 CIDRα1 [4]: 4 fold

HB3var03 CIDRα1.4 domain, mutant W669S (domain or fragment)
Kd [5]: 11 nM | koff [5]: 0.000449 s⁻¹ | kon [5]: 40100 M⁻¹ s⁻¹

HB3var03 CIDRα1.4 domain, mutant Q657K (domain or fragment)
Kd [5]: 72 nM | koff [5]: 0.00499 s⁻¹ | kon [5]: 68900 M⁻¹ s⁻¹

B1: CIDRα1.1 domain 2110-3 (patient isolate 2110) (domain or fragment)
chain: CPDCVVECVGGECKQKTDDDKNCRSKIIEEILKGEEPTVIDVLYSGNGQGVITKKLHDFCSSTNKEDDKYYKKWKCYNKNSDYNNCELISSLSTDPNDPNVMLSIKCFDSWARNLLVDALKWEHQLKNCINNTNVTDCKSNCNNNCKCYEEWIKRKGREWKQVKGVIENNDEGSHYYYKNVKNLFYNFLYPVIYKLEKEEKNGKWDQFMEDLKKKIESSETNTHTTDSQDAIELLLDHLKENAITCKDNNSLEEDKNC
Kd [8]: 32 nM | koff [8]: 0.000511 s⁻¹ | kon [8]: 15700 M⁻¹ s⁻¹

B2: CIDRα1.5b domain 1918-5 (patient isolate 1918) (domain or fragment, Plasmodium falciparum)
chain: PDCGVKCTNGKCEEKTDVDGNCGNKETYIPPRDISPTEISVLYSGYKRDDISEKLETFCREPTNNKSKNNETWKCYYKHSYNNKINKCIRQNEENIKNKLIINLDTFFEFWVRSFLNDTIDWKYDLNTCMNFTNTTKCNNNCNKNCKCFEQWVNKKETEWKNVAQYFFKHNEISKKKYCEILKDIFENYYVEVIKKVFKGDNKWKEIMVDIKNKIDCSNLKNGTEHLEKIINVLINQEQADATTCLKNNPIESCPKAEPQKSDENTQPQDTPPNSC
notes: The C-terminal V5 and His tags are told for the newly synthesised domains (D1:p2); also called CIDRa1.5b 1918-5_1918; 1918-5 (1.5b)
Kd [9]: 229 nM | koff [9]: 0.000108 s⁻¹ | kon [9]: 471 M⁻¹ s⁻¹

B3: CIDRα1.8b domain 1702-3 (patient isolate 1702) (domain or fragment)
chain: PDCIVVCDYKGCKENKNDENCKSKRTYSLPPDVNSTEIEVLFSGDNQEDIVEKLSSFCKNTNNENGENVEKWECYYESEHNNKCKMTSPKHKDEKRPTVMIFDEFFDFWVTHLIKDTIKWESDINDCINNTNVTDCDSACNENCKCFDEWVEKKEVEWGNVKKVLGNRSENLNIYYNKLNGIFSGFFFGVMHELKKKEAKQGVKAEEAQEAEETQEAQEEEAKWNKLTAKLQEIIDSSKGKADTANSQDAIKPLLEYIKETATTCIDNNSLAVENCPKTKINPC
Kd [8]: 6 nM | koff [8]: 2.28e-05 s⁻¹ | kon [8]: 3640 M⁻¹ s⁻¹

B4: CIDRα1.8b domain GA029_ERS010532 (domain or fragment)
chain: PDCVVVCERGNCTEKKGDDKCRKKYTYEIPAGMESTKIDILFSGENQEDITEKLRSFCKNTNNENGENIEKWECYYKNEYDNKCKMTSLKREDQKHHDLMSYYEFFDFWVTHLIKDTIKWESDINDCINNTNVTNCNNGCNENCICFEKWVGQKEKEWENVKKVLKNPSENLNNYYNKLNGIFSGFFFGVMHELKKKEAKQGVKVEKAEKSEEAQEAQEEEAKWNKLTAKLEEIIKSHKENTGTGNTQDAIEPLLKYLDENAITCKDNNSLKEDKNCPKTKKNPC
notes: also called CIDRa1.8b GA029_ERS010532; GA029 (1.8b)
Kd [8]: 24.2 nM | koff [8]: 0.000158 s⁻¹ | kon [8]: 6550 M⁻¹ s⁻¹
